B1: <ANG-2> Ang2i_LC10 (antibody, V domains shown)
VH: not shown
VL: QPPSVSVAPGQTARITCGGNNIGSKSVHWYQQKPGQAPVLVVYDDSDRPSGIPERFSGSNSGNTATLTISRVEAGDEADYYCQVWDSSSDHWVFGGGTKLTVLG
B2: <ANG-2> Ang2i_LC07 (antibody, V domains shown)
VH: not shown
VL: QPVLTQSPSVSVAPGETARVACGGNFIGGKSVHWYQQKPGQAPVLVIYDDSERPSGIPERISGSNSGNTATLIITRAEAGDEADYHCQVWDSDSDQGVFGTGTKLTVLG
notes: Only the variable domains are tied to this antibody
B3: <ANG-2> Ang2i_LC06 (antibody, V domains shown)
VH: not shown
VL: QPGLTQPPSVSVAPGQTARITCGGNNIGSKSVHWYQQKPGQAPVLVVYDDSDRPSGIPERFSGSNSGNTATLTISRVEAGDEADYYCQVWDSSSDHYVFGTGTKVTVLG
notes: as for B2
B4: human anti-ANG-2 antibody <ANG-2> antibody Mab536 (antibody, V domains shown)
VH: EVQLVQSGGGVVQPGRSLRLSCAASGFTFSSYGMHWVRQAPGKGLEWVSYISSSGSTIYYADSVKGRFTISRDNAKNSLYLQMNSLRAEDTAVYYCARDLLDYDILTGYGYWGQGTLVTVSS
VL: not shown
B5: <ANG-2> Ang2k_LC08 (antibody, V domains shown)
VH: QVQLVESGGGVVQPGGSLRLSCAASGFTFSSYGMHWVRQAPGKGLEWVAVISYDGSNKYYADSVKGRFTISRDNSKNTLYLQMNSLRAEDTAVYYCAKPTLDIYMGYYYGMDVWGQGTTVTVSS
VL: QPVLTQPPSASGAPGQRVTISCSGFASNIGSNSVNWYQQVPGTAPKLLIYNNDQRPSGVPDRFSGSRSGTSASLAISGLQSEDEADYYCAAWDDSLNGPVFGGGTKLTVLG
notes: as for B2

Key:
[1] = target: T1, Human angiopoietin-1 (ANG-1) with His-tag (human, UniProt Q15389 16-498); assay: SPR (Biacore): huAng-1 amine-coupled on a CM5 chip (appr. 20000 RU), BSA on the reference cell, antibody 100 nM in HBS-P injected for 3 min, 3 min dissociation
T1 construct: The assays used Angiopoietin-1-His, either R&D Systems #923-AN or in-house material; also called hANG-1; huAng-1
T1 sequence: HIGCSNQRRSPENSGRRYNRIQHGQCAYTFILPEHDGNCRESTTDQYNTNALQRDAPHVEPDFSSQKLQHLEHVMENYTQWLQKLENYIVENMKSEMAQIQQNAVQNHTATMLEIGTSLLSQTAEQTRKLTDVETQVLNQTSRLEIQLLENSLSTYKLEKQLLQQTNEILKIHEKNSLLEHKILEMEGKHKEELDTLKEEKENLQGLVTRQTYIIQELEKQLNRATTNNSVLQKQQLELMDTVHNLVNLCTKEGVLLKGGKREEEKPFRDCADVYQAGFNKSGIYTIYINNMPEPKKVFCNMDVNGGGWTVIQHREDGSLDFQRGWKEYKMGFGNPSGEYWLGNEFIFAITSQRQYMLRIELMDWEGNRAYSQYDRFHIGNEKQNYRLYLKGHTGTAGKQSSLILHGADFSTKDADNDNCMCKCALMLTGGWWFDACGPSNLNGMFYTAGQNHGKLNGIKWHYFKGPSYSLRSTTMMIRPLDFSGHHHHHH
Description: The protein was injected for 20 min in sodium acetate pH 4.5 at 10 μg/ml at a flow rate of 5 μl/min. […] On the reference flow cell BSA was immobilized under the same conditions. The antibodies were diluted in HBS-P to 100 nM and injected for 3 min (association phase). After washing with running buffer for 3 min (dissociation phase), the surface was regenerated by injecting 10 mM sodium hydroxide for 1 min at 5 μl/min.

[2] = target: T1, Human angiopoietin-1 (ANG-1) with …; assay: ANG-1 binding ELISA, human ANG-1 coated, antibody titrated
Description: (§1) The wells were washed three times with 300 μl PBST (0.2% Tween® 20) and blocked with 200 μl 2% BSA 0.1% Tween® 20 for 30 min at room temperature and subsequently washed three times with 300 μl PBST. […] The wells were washed three times with 300 μl PBST (0.2% Tween® 20) and bound antibody was detected with 100 μL/well 0.1 μg/ml F(ab′) POD (Biozol Cat. No. 206005) in 2% BSA 0.1% Tween® 20 as detection antibody for 1 h on a microtiterplate shaker at room temperature. Unbound detection antibody was washed away three times with 300 μL/well PBST and the bound detection antibody was detected by addition of 100 μL ABTS/well. Determination of absorbance was performed on a Tecan Fluor Spectrometer at a measurement wavelength of 405 nm (reference wavelength 492 nm).
(§2) Briefly, the ELISA-type assay is based on the immobilization of human wild-type Angiopoietin-1 or -2 in a microtiter plate.

[3] = target: T2, Human angiopoietin-2 (ANG-2) with His-tag (human, UniProt O15123 19-496); assay: ANG-2 binding ELISA, human ANG-2 coated, antibody titrated
T2 construct: The assays used full-length Angiopoietin-2-His, either R&D Systems #623-AN or in-house material; also called hANG-2; hAng-2
T2 sequence: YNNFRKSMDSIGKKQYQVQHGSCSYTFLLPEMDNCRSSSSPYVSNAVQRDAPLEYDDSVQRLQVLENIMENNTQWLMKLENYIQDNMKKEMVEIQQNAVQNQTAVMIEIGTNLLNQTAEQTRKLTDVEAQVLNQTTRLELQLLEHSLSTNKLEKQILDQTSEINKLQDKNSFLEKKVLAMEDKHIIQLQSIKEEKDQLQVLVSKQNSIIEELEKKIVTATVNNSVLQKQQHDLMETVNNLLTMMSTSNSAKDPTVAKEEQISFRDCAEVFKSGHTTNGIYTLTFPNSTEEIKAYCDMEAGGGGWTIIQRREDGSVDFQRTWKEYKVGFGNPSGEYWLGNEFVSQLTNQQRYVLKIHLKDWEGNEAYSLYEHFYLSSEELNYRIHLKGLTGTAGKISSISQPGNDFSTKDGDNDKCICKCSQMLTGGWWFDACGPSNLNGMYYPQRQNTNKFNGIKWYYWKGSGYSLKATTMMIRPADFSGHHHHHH
Description: as §1, §2

[4] = target: T2, Human angiopoietin-2 (ANG-2) with …; assay: ANGPT2/Tie2 interaction ELISA: antibody titrated with 0.2 ug/ml huAngiopoietin-2 on coated Tie2 (printed as 'inhibitory concentrations')
Description: The interaction ELISA was performed on 384 well microtiter plates (MicroCoat, DE, Cat. No. 464718) at RT. After each incubation step plates were washed 3 times with PBST. ELISA plates were coated with 0.5 μg/ml Tie-2 protein (R&D Systems, UK, Cat. No. 313-TI) for at least 2 hours (h). Thereafter the wells were blocked with PBS supplemented with 0.2% Tween® 20 and 2% BSA (Roche Diagnostics GmbH, DE) for 1 h. […] After washing a mixture of 0.5 μg/ml biotinylated anti-Angiopoietin-2 clone BAM0981 (R&D Systems, UK) and 1:3000 diluted streptavidin HRP (Roche Diagnostics GmbH, DE, Cat. No. 11089153001) was added for 1 h. Thereafter the plates were washed 6 times with PBST. Plates were developed with freshly prepared ABTS reagent (Roche Diagnostics GmbH, DE, buffer #204 530 001, tablets #11 112 422 001) for 30 minutes at RT. Absorbance was measured at 405 nm.
(§3) 384-well Maxisorp® plates (Nunc) were coated with 0.5 μg/ml human Tie2 (R&D Systems, UK, Cat. No. 313-TI or in house produced material) for 2 h at room temperature and blocked with PBS supplemented with 0.2% Tween® 20 and 2% BSA (Roche Diagnostics GmbH, DE) for 1 h at room temperature under shaking. […] After washing a mixture of 0.5 μg/ml biotinylated anti-Angiopoietin-1/2 clone (R&D Systems #BAF923, BAM0981 R&D Systems, UK) and 1:3000 diluted streptavidin HRP (Roche Diagnostics GmbH, DE, Cat. No. 11089153001) was added for 1 h. Thereafter the plates were washed 6 times with PBST. Plates were developed with freshly prepared ABTS reagent (Roche Diagnostics GmbH, DE, buffer #204 530 001, tablets #11 112 422 001) for 30 minutes at RT. Absorbance was measured at 405 nm.

[5] = target: T2, Human angiopoietin-2 (ANG-2) with …; assay: Biacore SPR, antibody captured by anti-Fc, ANG-2-His in solution, 1:1 model, Experiment 1
Description: (§4) Biacore® T100 Evaluation Software version 1.1.1 was used for analysis of sensorgrams and for calculation of affinity data.
(§5) The affinity for this interaction is determined with the assumption of a 1:1 interaction. Details of this experiment can be found in the general methods section.

[6] = target: T2, Human angiopoietin-2 (ANG-2) with …; assay: Biacore SPR, antibody captured by anti-Fc, ANG-2-His in solution, 1:1 model, average of Experiments 1 + 2
Description: as §4, §5

[7] = target: T2, Human angiopoietin-2 (ANG-2) with …; assay: cell-based or functional assay
[8] = target: T2, Human angiopoietin-2 (ANG-2) with …; assay: Biacore SPR, antibody captured by anti-Fc, ANG-2-His in solution, 1:1 model, Experiment 2
Description: as §4, §5

[9] = target: T1, Human angiopoietin-1 (ANG-1) with …; assay: ANGPT1/Tie2 interaction ELISA: antibody titrated with 0.2 ug/ml huAngiopoietin-1 on coated Tie2 (printed as 'inhibitory concentrations')
Description: After each incubation step plates were washed 3 times with PBST. […] Thereafter the wells were blocked with PBS supplemented with 0.2% Tween® 20 and 2% BSA (Roche Diagnostics GmbH, DE) for 1 h. […] Thereafter the plates were washed 6 times with PBST. Plates were developed with freshly prepared ABTS reagent (Roche Diagnostics GmbH, DE, buffer #204 530 001, tablets #11 112 422 001) for 30 minutes at RT. Absorbance was measured at 405 nm.
as §3

[10] = target: T1, Human angiopoietin-1 (ANG-1) with …; assay: cell-based or functional assay

| Binder | binding result [1] | EC50 [2] [µg/mL] | EC50 [3] [µg/mL] | IC50 [4] [nM] | Kd [5] [nM] | koff [5] [s⁻¹] | Kd [6] [nM] | IC50 of ANGPT2 stimulated Tie2 phosphorylation (HEK293-Tie2 clone22, P-Tie2 sandwich ELISA) [7] [µg/mL] | Kd [8] [nM] | koff [8] [s⁻¹] | IC50 [9] [nM] | IC50 of ANGPT1 stimulated Tie2 phosphorylation (HEK293-Tie2 clone22, P-Tie2 sandwich ELISA) [10] [µg/mL] |
| --- | --- | --- | --- | --- | --- | --- | --- | --- | --- | --- | --- | --- |
| B1 | no binding (tested: 100 nM) |  |  |  |  |  |  |  |  |  |  |  |
| B2 |  | > 8 | 3.01 |  |  |  |  |  |  |  |  |  |
| B3 |  | > 8 | 0.084 | 0.1 | 0.011 | 7.16e-05 | 0.016 | ~0.508 | 0.021 | 0.000114 |  |  |
| B4 |  | 2.54 | 0.133 | 0.15 | 0.029 | 0.000144 | 0.029 |  | 0.029 | 0.000125 |  |  |
| B5 |  | 4.04 | 0.105 | 0.17 | 0.016 | 0.000161 | 0.022 | ~0.499 | 0.027 | 0.000228 | 11 | ~0.391 |
